Measured values: patent publication US8969060B2, “Modified glucose dehydrogenase” (Ikeda Food Research Co., Ltd., priority 2011, dated 2015)
Positions count from the first letter of the chain named. Numbers in names are those of the source. Where “and” joins values, the source holds several entries; their conditions need not be identical. Identical values can stand only once.

B1: F432L: modified GLD: SEQ ID NO: 1 with substitution F432L (protein, listed as Aspergillus terreus)
chain: MLGKLSFLSALSLAVAAPLSNSTSAKYDYIVIGGGTSGLAVANRLSEDPNVNVLILEAGGSVWNNPNVTNVDGYGLAFGSDIDWQYQSVNQPYGGNLSQVLRAGKALGGTSTINGMAYTRAEDVQIDAWETIGNTGWTWKNLFPYYRKSENFTVPTKSQTSLGASYEAGAHGHEGPLDVAFTQIESNNLTTYLNRTFQGMGLPWTEDVNGGKMRGFNLYPSTVNLEEYVREDAARAYYWPYKSRPNLHVLLNTFANRIVWDGEAHDGHITASGVEITSRNGTVRVINAEKEVIVSAGALKSPAILELSGIGNPSVLDKHNIPVKVNLPTVGENLQDQVNSHMDASGNTSISGTKAVSYPDVYDVFGDEAESVAKQIRANLKQYAADTAKANGNIMKAADLERLFEVQYDLIFKGRVPIAEVLNYPGSATSVLAEFWALLPFARGSVHIGSSNPAEFPVINPNYFMLDWDAKSYVAVAKYIRRSFESYPLSSIVKESTPGYDVIPRNASEQSWKEWVFDKNYRSNFHPVGTAAMMPREIGGVVDERLNVYGTTNVRVVDASVLPFQVCGHLVSTLYAVAERAADLIKADAGRR
modifications: SIGNAL (1)..(19)
B2: H341W: modified GLD: SEQ ID NO: 1 with substitution H341W (protein, listed as Aspergillus terreus)
chain: B1 chain with H341W, L432F
modifications: SIGNAL (1)..(19)
B3: F432R: modified GLD: SEQ ID NO: 1 with substitution F432R (protein, listed as Aspergillus terreus)
chain: B1 chain with L432R
modifications: SIGNAL (1)..(19)
B4: G426D: modified GLD: SEQ ID NO: 1 with substitution G426D (protein, listed as Aspergillus terreus)
chain: B1 chain with G426D, L432F
modifications: SIGNAL (1)..(19)
B5: G426C: modified GLD: SEQ ID NO: 1 with substitution G426C (protein, listed as Aspergillus terreus)
chain: B1 chain with G426C, L432F
modifications: SIGNAL (1)..(19)
B6: F432M: modified GLD: SEQ ID NO: 1 with substitution F432M (protein, listed as Aspergillus terreus)
chain: B1 chain with L432M
modifications: SIGNAL (1)..(19)
B7: F432I: modified GLD: SEQ ID NO: 1 with substitution F432I (protein, listed as Aspergillus terreus)
chain: B1 chain with L432I
modifications: SIGNAL (1)..(19)
B8: G426A: modified GLD: SEQ ID NO: 1 with substitution G426A (protein, listed as Aspergillus terreus)
chain: B1 chain with G426A, L432F
modifications: SIGNAL (1)..(19)
B9: F432K: modified GLD: SEQ ID NO: 1 with substitution F432K (protein, listed as Aspergillus terreus)
chain: B1 chain with L432K
modifications: SIGNAL (1)..(19)
B10: F432Q: modified GLD: SEQ ID NO: 1 with substitution F432Q (protein, listed as Aspergillus terreus)
chain: B1 chain with L432Q
modifications: SIGNAL (1)..(19)
B11: Wild-type: wild-type FAD-conjugated glucose dehydrogenase (GLD) of Aspergillus terreus FERM BP-08578, SEQ ID NO: 1 (protein, listed as Aspergillus terreus)
chain: B1 chain with L432F
modifications: FAD cofactor; SIGNAL (1)..(19)

Key:
Assay type in all cases: biochemical
[1] = Susceptibility of purified enzyme to 1,10-phenanthroline (spectrophotometer); details: inhibitor 1 mM
Description: (§1) 1.0 mL of 0.1 M potassium phosphate buffer (pH 7.0), 1.0 mL of 1.0 M D-glucose, 0.14 mL of 3 mM 2,6-dichlorophenol indophenol (hereinafter referred to as DCIP), 0.2 mL of 3 mM 1-methoxy-5-methylphenazinium methylsulfate (hereinafter referred to as 1-m-PMS), 0.06 mL of methanol and 0.55 mL of distilled water are added to a 3-mL quartz cell (light path length: 1 cm), and the cell is placed in a spectrophotometer provided with a thermostat cell holder and incubated at 37° C. for 10 minutes. Thereafter, 0.05 mL of an enzyme solution is added to the cell, and then, a change in the absorbance of DCIP at 600 nm (ΔABS/min) is determined. The molar extinction coefficient of DCIP at pH 7.0 is taken as 16.3×10^3 cm^−1 M^−1, and enzymatic activity to reduce 1 μmol of DCIP per minute is substantially equivalent to 1 unit of the enzymatic activity. Therefore, the enzymatic activity is determined from the change in the absorbance according to Equation I. In Example 8, methanol was replaced with the same amount of distilled water.
(§2) In the following examples, a value of the enzymatic activity determined by the spectrometer or plate reader using the above reagent composition is considered as a blank value. On the other hand, a sample value is determined using a methanol solution comprising the inhibitor such as 1,10-phenanthroline or proflavin hydrochloride at a final concentration of 1 mM instead of the methanol. Enzymatic activity (unit/mL)=(−ΔABS/16.3)×3.0/0.05×(Dilution ratio of enzyme) [Equation 1]
(§3) The mutants having the mutation of H341W and F432L, respectively, were inoculated into a shake flask containing 150 mL the YPD medium. After shaking culture at 30° C. and 120 rpm for 48 hours, the culture mixture was centrifuged at 3,000×g for 5 min. and the supernatant was filtered through a membrane filter with 10 μm. […]
(§4) After diluting the purified enzyme to an appropriate concentration, the sample value and blank value were determined in accordance with the method for determination of the enzymatic activity using the spectrophotometer.

[2] = Relative enzymatic activity of GLD (DCIP/1-m-PMS, plate reader, yeast culture supernatant) with proflavin hydrochloride present; details: site-specific mutants, inhibitor final concentration 1 mM
In short: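 Culture supernatant diluted and mixed with reagent of phosphate buffer pH 7.0, 1.0 M D-glucose, 3 mM DCIP, 3 mM 1-m-PMS and methanol (0.1:1:0.14:0.2:0.06). DCIP absorbance decrease at 600 nm followed; proflavin hydrochloride in methanol replaced methanol at 1 mM final. Activity expressed as % of inhibitor-free blank.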

[3] = Susceptibility to proflavin at a high concentration; details: final conc. 2 mM
Description: as §1, with “The molar extinction coefficient of DCIP at pH 7.0 is taken as 16.3×10^3 cm^−1 M^−1, and enzymatic activity to reduce 1 μmol of DCIP per minute is substantially equivalent to 1 unit of the enzymatic activity.” left out
The enzymatic activity is determined in the following manner in Examples 3 and 6 wherein a plate reader (Japan Molecular Device Corporation, SpectraMax Plus384) is used. […] A reagent for the determination of the enzymatic activity comprising phosphate buffer (pH 7.0), 1.0 M D-glucose, 3 mM DCIP, 3 mM 1-m-PMS and methanol with a volume ratio of 0.1:1:0.14:0.2:0.06 is added to the 96-well microplate with an amount of 100 μl per well, and a change in the absorbance of DCIP at 600 nm (ΔABS/min) is then determined. […]

[4] = Susceptibility to 1,10-phenanthroline at a high concentration
Description: as §1
The enzymatic activity is determined in the following manner in Examples 3 and 6 wherein a plate reader (Japan Molecular Device Corporation, SpectraMax Plus384) is used. Thus, culture supernatant that had been diluted in advance with an appropriate magnification is added to a 96-well microplate with an amount of 100 μl per well. A reagent for the determination of the enzymatic activity comprising phosphate buffer (pH 7.0), 1.0 M D-glucose, 3 mM DCIP, 3 mM 1-m-PMS and methanol with a volume ratio of 0.1:1:0.14:0.2:0.06 is added to the 96-well microplate with an amount of 100 μl per well, and a change in the absorbance of DCIP at 600 nm (ΔABS/min) is then determined. The enzymatic activity can be calculated by conversion in proportion to a change in the absorbance of an enzyme solution for which the enzymatic activity has already been known by the above-mentioned activity determination procedure using the spectrophotometer.
as §2
The relative activity was determined in the same manner as in Examples 3 and 6 in the co-existence of the inhibitors at a high concentration.

[5] = Relative enzymatic activity of GLD (DCIP/1-m-PMS, plate reader, yeast culture supernatant) with 1,10-phenanthroline present; details: for Relative Activity: random-mutation mutants, sample value with inhibitor at 1 mM / blank value, inhibitor not named in Table 1; for Relative Activity [%] 1,10-Phenanthroline: site-specific mutants, inhibitor final concentration 1 mM
In short: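 Yeast transformants grown in YPD, 30° C., 24 h; diluted culture supernatant assayed in phosphate buffer pH 7.0 with D-glucose, DCIP and 1-m-PMS, DCIP absorbance change at 600 nm. Relative activity (%) = activity with 1 mM 1,10-phenanthroline (final, replacing methanol) divided by activity without it.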

[6] = Susceptibility of purified enzyme to proflavin hydrochloride (spectrophotometer); details: inhibitor 1 mM
Description: as §1, §2, §3, §4

Molecule	Relative Activity [%] 1,10-Phenanthroline [1] [%]	Relative Activity [%] Proflavin hydrochloride [2]	Relative Activity[%] [3] [%]	Relative Activity[%] ([4]; final conc. 1 mM)	Relative Activity[%] ([4]; final conc. 5 mM)	Relative Activity[%] ([4]; final conc. 10 mM)	Relative Activity[%] ([4]; final conc. 20 mM)	Relative Activity [5] [%]	Relative Activity [%] 1,10-Phenanthroline [5]	Relative Activity [%] Proflavin hydrochloride [6] [%]
B1	90.8	68.1%	91.6	97.0	64.2	47.2	32.1	80.4	91.7%	88.1
B2	89.5	88.4%	138.2	99.4	78.1	63.2	45.8	–	100.3%	144.3
B3	–	73.7% and 72.6%	–	–	–	–	–	–	86.2% and 94.2%	–
B4	–	34.2%	–	–	–	–	–	–	56.5%	–
B5	–	64.1%	–	–	–	–	–	–	78.0%	–
B6	–	71.1% and 66.1%	–	–	–	–	–	–	62.5% and 74.2%	–
B7	–	80.9%	–	–	–	–	–	–	91.8%	–
B8	–	51.2%	–	–	–	–	–	–	68.7%	–
B9	–	79.3%	–	–	–	–	–	–	92.1%	–
B10	–	67.3%	–	–	–	–	–	–	59.3%	–
B11	41.1	35.0%	–	–	–	–	–	25.7	30.0%	50.9
